Data from IntAct's records for PubMed 31515488.

B1: IQ motif and ubiquitin-like domain-containing protein (Homo sapiens), Q8NA54 (parent)
chain: MSNQQEKYEAQNIVNSTEESDDAFDTVTIPVPSEEPQESDQTEEHESGIEQFSESHAIHVEEQSDQSFSSLEPDNEQLMEEVISPRQVSYTPQHHEKQYAMQRPNDDSLAFLDKIKSVKESLQESVEDSLATVKVVLIPVGQEIVIPFKVDTILKYLKDHFSHLLGIPHSVLQIRYSGKILKNNETLVQHGVKPQEIVQVEIFSTNPDLYPVRRIDGLTDVSQIITVTVQTGLDQYQQVPVEIVKSDFHKPFLGGFRHKVTGVEYHNAGTQTVPKRIPERLSIFCRDTQTVFQKKNLQQTTNTTSTQMTNIGVYVSNMTDKLVTPGKYFSAAEYHAQRLKAVIVIQTYYRQWHAKIFVENLRRQKSLRLEWETQQELRKIREKEEWIKLDYHRRHNPKTNEDFEFLYNALEFWRQEELTRINQSFTGAERKAALCELLEKETQIIASIGRHRYIAYMANQEAAIQAFLDKCSAPKIWRTPNGKTIEMDTQFTIRARELQNIYKCIMLKNISQDERLDVLLTLKHTVKEHECKLTQEILELIDREVDLMMRGVKHHNLEGLRKRIATLFFHYIKTPLFNPEVAKYLKVPQDPLKFYKKIYFCHSCQLYLPSTEFSVSSTSRRIYRCRNCINLQNEAQKRESFLKYKCLLQQLYYTEADYEDDSKIAFLMQLQDIQYLTENIWASQSVLSACDNLSDLVMVRWNKSLEWSPWNCILLTKDEAAAHLKLTSIEEGYERSFIHKIKHKHILAKNYFSQVPVLASFILDDGEIDEIRWKYHSDTTPKIIESQRPPH
B2: Keratin-associated protein 3-2 (Homo sapiens), Q9BYR7 (parent)
chain: MDCCASRSCSVPTGPATTICSSDKSCRCGVCLPSTCPHTVWLLEPICCDNCPPPCHIPQPCVPTCFLLNSCQPTPGLETLNLTTFTQPCCEPCLPRGC
partner: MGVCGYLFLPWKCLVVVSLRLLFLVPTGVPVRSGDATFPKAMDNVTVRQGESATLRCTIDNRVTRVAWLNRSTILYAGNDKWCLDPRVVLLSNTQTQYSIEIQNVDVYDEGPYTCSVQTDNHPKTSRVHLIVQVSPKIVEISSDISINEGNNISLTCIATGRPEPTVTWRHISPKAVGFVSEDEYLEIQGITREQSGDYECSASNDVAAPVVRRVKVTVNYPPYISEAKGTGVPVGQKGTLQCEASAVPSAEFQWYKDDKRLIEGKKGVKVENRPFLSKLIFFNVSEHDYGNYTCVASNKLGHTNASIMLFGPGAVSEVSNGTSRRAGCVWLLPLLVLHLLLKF
B3: E3 ubiquitin-protein ligase CHIP (Homo sapiens), Q9UNE7 (parent)
chain: MKGKEEKEGGARLGAGGGSPEKSPSAQELKEQGNRLFVGRKYPEAAACYGRAITRNPLVAVYYTNRALCYLKMQQHEQALADCRRALELDGQSVKAHFFLGQCQLEMESYDEAIANLQRAYSLAKEQRLNFGDDIPSALRIAKKKRWNSIEERRIHQESELHSYLSRLIAAERERELEECQRNHEGDEDDSHVRAQQACIEAKHDKYMADMDELFSQVDEKRKKRDIPDYLCGKISFELMREPCITPSGITYDRKDIEEHLQRVGHFDPVTRSPLTQEQLIPNLAMKEVIDAFISENGWVEDY
B4: Prelamin-A/C (Homo sapiens), P02545 (parent)
chain: METPSQRRATRSGAQASSTPLSPTRITRLQEKEDLQELNDRLAVYIDRVRSLETENAGLRLRITESEEVVSREVSGIKAAYEAELGDARKTLDSVAKERARLQLELSKVREEFKELKARNTKKEGDLIAAQARLKDLEALLNSKEAALSTALSEKRTLEGELHDLRGQVAKLEAALGEAKKQLQDEMLRRVDAENRLQTMKEELDFQKNIYSEELRETKRRHETRLVEIDNGKQREFESRLADALQELRAQHEDQVEQYKKELEKTYSAKLDNARQSAERNSNLVGAAHEELQQSRIRIDSLSAQLSQLQKQLAAKEAKLRDLEDSLARERDTSRRLLAEKEREMAEMRARMQQQLDEYQELLDIKLALDMEIHAYRKLLEGEEERLRLSPSPTSQRSRGRASSHSSQTQGGGSVTKKRKLESTESRSSFSQHARTSGRVAVEEVDEEGKFVRLRNKSNEDQSMGNWQIKRQNGDDPLLTYRFPPKFTLKAGQVVTIWAAGAGATHSPPTDLVWKAQNTWGCGNSLRTALINSTGEEVAMRKLVRSVTVVEDDEDEDGDDLLHHHHGSHCSSSGDPAEYNLRSRTVLCGTCGQPADKASASGSGAQVGGPISSGSSASSVTVTRSYRSVGGSGGGSFGDNLVTRSYLLGNSSPRTQSPQNCSIM
partner: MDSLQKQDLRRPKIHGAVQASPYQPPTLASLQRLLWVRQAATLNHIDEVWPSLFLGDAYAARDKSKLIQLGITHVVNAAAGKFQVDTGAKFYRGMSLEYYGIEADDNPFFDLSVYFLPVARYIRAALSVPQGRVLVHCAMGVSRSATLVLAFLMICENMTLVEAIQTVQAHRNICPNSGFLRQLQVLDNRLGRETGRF
B5: Zinc finger protein Aiolos (Homo sapiens), Q9UKT9 (parent)
chain: MEDIQTNAELKSTQEQSVPAESAAVLNDYSLTKSHEMENVDSGEGPANEDEDIGDDSMKVKDEYSERDENVLKSEPMGNAEEPEIPYSYSREYNEYENIKLERHVVSFDSSRPTSGKMNCDVCGLSCISFNVLMVHKRSHTGERPFQCNQCGASFTQKGNLLRHIKLHTGEKPFKCHLCNYACQRRDALTGHLRTHSVEKPYKCEFCGRSYKQRSSLEEHKERCRTFLQSTDPGDTASAEARHIKAEMGSERALVLDRLASNVAKRKSSMPQKFIGEKRHCFDVNYNSSYMYEKESELIQTRMMDQAINNAISYLGAEALRPLVQTPPAPTSEMVPVISSMYPIALTRAEMSNGAPQELEKKSIHLPEKSVPSERGLSPNNSGHDSTDTDSNHEERQNHIYQQNHMVLSRARNGMPLLKEVPRSYELLKPPPICPRDSVKVINKEGEVMDVYRCDHCRVLFLDYVMFTIHMGCHGFRDPFECNMCGYRSHDRYEFSSHIARGEHRALLK
partner: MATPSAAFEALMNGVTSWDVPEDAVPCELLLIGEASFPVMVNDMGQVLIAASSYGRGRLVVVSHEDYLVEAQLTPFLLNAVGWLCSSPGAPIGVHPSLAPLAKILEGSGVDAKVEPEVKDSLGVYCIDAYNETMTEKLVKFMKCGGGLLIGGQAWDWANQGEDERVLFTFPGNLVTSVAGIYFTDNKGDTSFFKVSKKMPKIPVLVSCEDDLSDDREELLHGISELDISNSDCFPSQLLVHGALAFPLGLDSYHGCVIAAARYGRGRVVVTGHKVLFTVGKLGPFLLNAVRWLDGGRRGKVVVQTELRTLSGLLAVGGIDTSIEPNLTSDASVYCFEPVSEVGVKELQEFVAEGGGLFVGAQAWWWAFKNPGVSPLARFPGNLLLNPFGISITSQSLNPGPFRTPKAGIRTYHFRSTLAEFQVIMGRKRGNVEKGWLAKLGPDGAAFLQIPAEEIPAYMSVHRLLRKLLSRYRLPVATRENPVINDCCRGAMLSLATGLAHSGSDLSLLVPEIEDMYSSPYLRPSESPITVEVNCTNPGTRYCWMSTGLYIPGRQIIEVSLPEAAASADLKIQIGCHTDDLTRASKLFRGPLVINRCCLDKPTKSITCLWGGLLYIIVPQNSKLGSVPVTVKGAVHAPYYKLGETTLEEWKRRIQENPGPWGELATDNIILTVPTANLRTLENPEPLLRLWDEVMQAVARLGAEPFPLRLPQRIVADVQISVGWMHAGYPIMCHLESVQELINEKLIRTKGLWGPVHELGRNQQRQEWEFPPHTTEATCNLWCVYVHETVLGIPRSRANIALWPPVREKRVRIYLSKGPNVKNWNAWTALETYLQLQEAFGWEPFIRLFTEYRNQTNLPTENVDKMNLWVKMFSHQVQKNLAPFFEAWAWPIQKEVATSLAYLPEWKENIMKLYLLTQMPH
B6: Cyclin-D1-binding protein 1 (Homo sapiens), O95273 (parent)
chain: MASATAPAAAVPTLASPLEQLRHLAEELRLLLPRVRVGEAQETTEEFNREMFWRRLNEAAVTVSREATTLTIVFSQLPLPSPQETQKFCEQVHAAIKAFIAVYYLLPKDQGITLRKLVRGATLDIVDGMAQLMEVLSVTPTQSPENNDLISYNSVWVACQQMPQIPRDNKAAALLMLTKNVDFVKDAHEEMEQAVEECDPYSGLLNDTEENNSDNHNHEDDVLGFPSNQDLYWSEDDQELIIPCLALVRASKACLKKIRMLVAENGKKDQVAQLDDIVDISDEISPSVDDLALSIYPPMCHLTVRINSAKLVSVLKKALEITKASHVTPQPEDSWIPLLINAIDHCMNRIKELTQSELEL
partner: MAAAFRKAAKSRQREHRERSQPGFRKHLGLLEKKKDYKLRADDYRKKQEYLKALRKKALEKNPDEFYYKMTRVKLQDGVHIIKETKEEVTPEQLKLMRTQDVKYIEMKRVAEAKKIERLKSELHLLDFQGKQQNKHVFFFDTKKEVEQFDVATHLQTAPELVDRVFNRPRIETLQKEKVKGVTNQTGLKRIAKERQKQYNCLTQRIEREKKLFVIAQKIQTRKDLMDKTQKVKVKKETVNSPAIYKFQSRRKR
B7: Acylamino-acid-releasing enzyme (Homo sapiens), P13798 (parent)
chain: MERQVLLSEPEEAAALYRGLSRQPALSAACLGPEVTTQYGGQYRTVHTEWTQRDLERMENIRFCRQYLVFHDGDSVVFAGPAGNSVETRGELLSRESPSGTMKAVLRKAGGTGPGEEKQFLEVWEKNRKLKSFNLSALEKHGPVYEDDCFGCLSWSHSETHLLYVAEKKRPKAESFFQTKALDVSASDDEIARLKKPDQAIKGDQFVFYEDWGENMVSKSIPVLCVLDVESGNISVLEGVPENVSPGQAFWAPGDAGVVFVGWWHEPFRLGIRFCTNRRSALYYVDLIGGKCELLSDDSLAVSSPRLSPDQCRIVYLQYPSLIPHHQCSQLCLYDWYTKVTSVVVDVVPRQLGENFSGIYCSLLPLGCWSADSQRVVFDSAQRSRQDLFAVDTQVGTVTSLTAGGSGGSWKLLTIDQDLMVAQFSTPSLPPTLKVGFLPSAGKEQSVLWVSLEEAEPIPDIHWGIRVLQPPPEQENVQYAGLDFEAILLQPGSPPDKTQVPMVVMPHGGPHSSFVTAWMLFPAMLCKMGFAVLLVNYRGSTGFGQDSILSLPGNVGHQDVKDVQFAVEQVLQEEHFDASHVALMGGSHGGFISCHLIGQYPETYRACVARNPVINIASMLGSTDIPDWCVVEAGFPFSSDCLPDLSVWAEMLDKSPIRYIPQVKTPLLLMLGQEDRRVPFKQGMEYYRALKTRNVPVRLLLYPKSTHALSEVEVESDSFMNAVLWLRTHLGS
B8: Cyclin-D1-binding protein 1 (Homo sapiens), O95273 (parent)
chain: B6 chain
partner: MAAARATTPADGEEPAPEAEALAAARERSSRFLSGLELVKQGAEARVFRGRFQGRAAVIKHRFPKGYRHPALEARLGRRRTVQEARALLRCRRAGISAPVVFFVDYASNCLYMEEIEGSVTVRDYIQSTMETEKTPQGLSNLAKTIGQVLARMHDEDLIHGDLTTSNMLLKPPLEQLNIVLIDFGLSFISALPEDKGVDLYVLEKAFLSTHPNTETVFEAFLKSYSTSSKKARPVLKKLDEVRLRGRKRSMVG
B9: Rhophilin-1 (Homo sapiens), Q8TCX5 (parent)
chain: MILEERPDGAGAGEESPRLQGCDSLTQIQCGQLQSRRAQIHQQIDKELQMRTGAENLYRATSNNRVRETVALELSYVNSNLQLLKEELEELSGGVDPGRHGSEAVTVPMIPLGLKETKELDWSTPLKELISVHFGEDGASYEAEIRELEALRQAMRTPSRNESGLELLTAYYNQLCFLDARFLTPARSLGLFFHWYDSLTGVPAQQRALAFEKGSVLFNIGALHTQIGARQDRSCTEGARRAMEAFQRAAGAFSLLRENFSHAPSPDMSAASLCALEQLMMAQAQECVFEGLSPPASMAPQDCLAQLRLAQEAAQVAAEYRLVHRTMAQPPVHDYVPVSWTALVHVKAEYFRSLAHYHVAMALCDGSPATEGELPTHEQVFLQPPTSSKPRGPVLPQELEERRQLGKAHLKRAILGQEEALRLHALCRVLREVDLLRAVISQTLQRSLAKYAELDREDDFCEAAEAPDIQPKTHQKPEARMPRLSQGKGPDIFHRLGPLSVFSAKNRWRLVGPVHLTRGEGGFGLTLRGDSPVLIAAVIPGSQAAAAGLKEGDYIVSVNGQPCRWWRHAEVVTELKAAGEAGASLQVVSLLPSSRLPSLGDRRPVLLGPRGLLRSQREHGCKTPASTWASPRPLLNWSRKAQQGKTGGCPQPCAPVKPAPPSSLKHPGWP

Variants of: B1
Conditions: with tri23_human TRIM23, P36406
tri23_human TRIM23, P36406, sequence (P36406 whole entry): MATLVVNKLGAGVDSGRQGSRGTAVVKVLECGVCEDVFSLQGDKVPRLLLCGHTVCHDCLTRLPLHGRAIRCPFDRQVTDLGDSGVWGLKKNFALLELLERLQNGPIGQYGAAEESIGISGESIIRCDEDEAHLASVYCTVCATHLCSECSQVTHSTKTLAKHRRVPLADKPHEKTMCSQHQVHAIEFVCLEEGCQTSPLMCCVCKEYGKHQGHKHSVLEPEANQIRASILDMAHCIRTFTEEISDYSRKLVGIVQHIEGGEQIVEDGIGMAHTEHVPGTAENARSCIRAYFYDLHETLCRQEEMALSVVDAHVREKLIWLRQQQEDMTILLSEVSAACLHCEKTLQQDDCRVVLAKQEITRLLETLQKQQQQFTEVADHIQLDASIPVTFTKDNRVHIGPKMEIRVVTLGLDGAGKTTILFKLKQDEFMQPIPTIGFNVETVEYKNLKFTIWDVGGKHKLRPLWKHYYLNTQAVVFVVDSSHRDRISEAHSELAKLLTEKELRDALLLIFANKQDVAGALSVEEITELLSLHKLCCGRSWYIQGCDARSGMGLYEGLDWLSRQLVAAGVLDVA

Variant	effect of a mutation on the interaction
V126M	with no effect

Variants of: B2
Conditions: with ntri_human NTM

Variant	effect of a mutation on the interaction
R27C	with no effect
S8G	with no effect

Variants of: B3
Conditions: with noe3_human OLFM3, Q96PB7
noe3_human OLFM3, Q96PB7, sequence (Q96PB7 whole entry): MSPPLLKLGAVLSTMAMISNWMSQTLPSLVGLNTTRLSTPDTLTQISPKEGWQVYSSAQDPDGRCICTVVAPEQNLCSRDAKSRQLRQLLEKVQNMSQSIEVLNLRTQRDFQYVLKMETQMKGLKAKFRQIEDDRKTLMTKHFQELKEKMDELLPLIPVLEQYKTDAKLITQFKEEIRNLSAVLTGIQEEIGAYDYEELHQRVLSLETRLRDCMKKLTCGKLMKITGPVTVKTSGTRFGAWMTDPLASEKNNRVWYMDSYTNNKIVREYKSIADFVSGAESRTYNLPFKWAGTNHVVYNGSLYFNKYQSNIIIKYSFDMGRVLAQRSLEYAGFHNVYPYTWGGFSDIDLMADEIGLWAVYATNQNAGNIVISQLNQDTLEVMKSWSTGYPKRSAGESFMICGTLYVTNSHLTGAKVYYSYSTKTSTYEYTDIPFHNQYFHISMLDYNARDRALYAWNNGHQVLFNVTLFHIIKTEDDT

Variant	effect of a mutation on the interaction
Q181H	with no effect

Variants of: B4
Conditions: with ds13b_human DUSP13B

Variant	effect of a mutation on the interaction
I299V	with no effect

Variants of: B5
Conditions: with tcaf1_human TCAF1, Q9Y4C2

Variant	effect of a mutation on the interaction
A24V	with no effect
N119D	with no effect

Variants of: B6
Conditions: with utp11_human UTP11, Q9Y3A2

Variant	effect of a mutation on the interaction
I277T	disrupting interaction strength

Variants of: B7
Conditions: with leg8_human LGALS8, O00214
leg8_human LGALS8, O00214, sequence (O00214 whole entry): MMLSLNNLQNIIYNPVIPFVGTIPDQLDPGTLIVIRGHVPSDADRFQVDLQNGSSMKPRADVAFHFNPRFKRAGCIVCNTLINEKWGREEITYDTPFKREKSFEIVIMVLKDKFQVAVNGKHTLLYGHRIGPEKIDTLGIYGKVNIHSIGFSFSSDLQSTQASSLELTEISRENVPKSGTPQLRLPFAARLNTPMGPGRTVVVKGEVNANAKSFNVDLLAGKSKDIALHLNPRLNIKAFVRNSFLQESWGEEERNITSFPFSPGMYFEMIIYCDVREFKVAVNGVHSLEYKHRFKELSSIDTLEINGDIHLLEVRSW

Variant	effect of a mutation on the interaction
F378S	disrupting interaction strength

Variants of: B8
Conditions: with prpk_human TP53RK

Variant	effect of a mutation on the interaction
I277T	disrupting interaction strength

Variants of: B9
Conditions: with mtus2_human MTUS2, Q5JR59
mtus2_human MTUS2, Q5JR59, sequence (Q5JR59 whole entry): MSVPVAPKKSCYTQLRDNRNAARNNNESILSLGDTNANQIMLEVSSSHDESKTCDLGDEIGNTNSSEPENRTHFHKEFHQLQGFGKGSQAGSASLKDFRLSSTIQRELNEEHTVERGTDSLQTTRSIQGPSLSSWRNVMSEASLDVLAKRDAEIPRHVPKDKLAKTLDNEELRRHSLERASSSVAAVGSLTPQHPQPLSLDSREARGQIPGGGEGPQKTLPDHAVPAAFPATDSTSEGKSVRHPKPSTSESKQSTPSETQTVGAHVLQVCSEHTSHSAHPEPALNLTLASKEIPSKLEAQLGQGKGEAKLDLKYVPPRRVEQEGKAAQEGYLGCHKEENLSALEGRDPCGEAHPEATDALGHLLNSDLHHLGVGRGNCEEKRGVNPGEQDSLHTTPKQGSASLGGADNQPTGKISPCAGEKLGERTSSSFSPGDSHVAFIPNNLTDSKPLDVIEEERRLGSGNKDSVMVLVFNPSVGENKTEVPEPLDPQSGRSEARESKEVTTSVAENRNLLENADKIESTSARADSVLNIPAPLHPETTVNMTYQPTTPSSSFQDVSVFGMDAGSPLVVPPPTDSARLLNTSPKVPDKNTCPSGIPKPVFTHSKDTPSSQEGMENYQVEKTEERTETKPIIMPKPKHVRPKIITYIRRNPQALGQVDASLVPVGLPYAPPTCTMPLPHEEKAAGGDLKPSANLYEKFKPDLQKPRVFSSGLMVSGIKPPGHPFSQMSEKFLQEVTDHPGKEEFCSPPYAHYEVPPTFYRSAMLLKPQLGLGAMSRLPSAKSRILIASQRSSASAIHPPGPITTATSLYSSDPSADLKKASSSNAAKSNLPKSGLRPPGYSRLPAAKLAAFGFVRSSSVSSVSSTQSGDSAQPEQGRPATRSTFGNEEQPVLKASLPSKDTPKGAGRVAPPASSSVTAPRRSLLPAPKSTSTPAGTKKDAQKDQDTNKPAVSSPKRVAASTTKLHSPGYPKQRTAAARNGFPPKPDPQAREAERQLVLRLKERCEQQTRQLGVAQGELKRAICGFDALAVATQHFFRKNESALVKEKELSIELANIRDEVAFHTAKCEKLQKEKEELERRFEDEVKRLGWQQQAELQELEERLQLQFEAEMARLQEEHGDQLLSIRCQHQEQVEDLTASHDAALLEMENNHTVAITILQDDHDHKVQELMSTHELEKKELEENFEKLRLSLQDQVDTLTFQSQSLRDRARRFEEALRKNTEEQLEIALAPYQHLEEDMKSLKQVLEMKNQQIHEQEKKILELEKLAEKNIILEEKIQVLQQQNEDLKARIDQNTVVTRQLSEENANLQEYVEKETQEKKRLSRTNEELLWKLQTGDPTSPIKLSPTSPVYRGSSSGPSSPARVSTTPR

Variant	effect of a mutation on the interaction
A536T	with no effect
